Experimental findings from patent publication US20250161408A1, “PEPTIDIC INHIBITORS OF AMYLOID SELF- AND CROSS-ASSEMBLY” (TECHNISCHE UNIVERSITÄT MÜNCHEN, priority 2022, published 2025) are described below.

A value given as a limit tells only on which side of the number the result lay.

For assay [1], the target named is islet amyloid polypeptide (IAPP) (human) (UniProt P10997).
Assay [2] has as its target IAPP fibrils (fIAPP) (human) (UniProt P10997).
Assay [3] deals with Aβ42 (Homo sapiens (Human)) (UniProt P05067).
The target of assay [4] is Aβ42 fibrils (fAβ42) (Homo sapiens (Human)) (UniProt P05067).

“proteinase K (PK) (from UniProt P06873) (enzyme)” had a proteinase K digestion of hf-IAPP/ACM followed by dot blot in assay [1] below 6 h. This substance returned a proteinase K digestion followed by dot blot (anti-fIAPP antibody) in assay [2] above 30 h. In addition, in assay [3], the proteinase K digestion of hf-Aβ42/Nle3-VF followed by dot blot (6E10) was found to be 30 min. The same substance came in with a proteinase K digestion followed by dot blot (6E10) in assay [4] of 2 h.
